For nine molecules, Ki results are on record in patent publication US20240091318A1, “COMBINATION THERAPY COMPRISING LONG ACTING GLP-1/GLUCAGON AND NPY2 RECEPTOR AGONISTS” (Boehringer Ingelheim International GmbH, priority 2022, published 2024).

T1: human NPY2 receptor (human, UniProt P49146)
T1 sequence: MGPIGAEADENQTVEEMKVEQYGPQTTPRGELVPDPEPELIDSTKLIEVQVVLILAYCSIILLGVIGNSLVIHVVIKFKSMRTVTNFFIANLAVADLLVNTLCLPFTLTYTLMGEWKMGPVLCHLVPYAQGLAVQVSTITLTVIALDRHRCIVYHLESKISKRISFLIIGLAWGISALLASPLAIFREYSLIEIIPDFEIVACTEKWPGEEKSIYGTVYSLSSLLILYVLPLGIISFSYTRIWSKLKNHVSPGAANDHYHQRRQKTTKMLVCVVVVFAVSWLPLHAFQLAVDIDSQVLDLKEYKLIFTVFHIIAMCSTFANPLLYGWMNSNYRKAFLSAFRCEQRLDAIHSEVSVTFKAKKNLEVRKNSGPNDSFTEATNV

B1: Reference 2 (peptide)
peptide: APEKPGEDASPEELQRYYVSLRHYYHWLTRQRY
modifications: not fully specified; N-terminal iVal (3-methylbutanoyl); the Lys (4th residue) carries C18DA-gGlu-OEG-OEG; C-terminal amide (-NH2)
B2: Reference 3 (peptide)
peptide: Isovaleryl-RPEKPEEDASPEELQRYYVSLRHYYNWLTRQRY-NH2
modifications: not fully specified (residue 4); printed as iVal-RPEK(C18DA-gGlu-OEG-OEG)PEEDASPEELQRYYVSLRHYYNWLTRQRY-NH2
B3: Compound C (peptide)
peptide: Isovaleryl-APAK([AEEA-AEEA-γGlu-C18 diacid])PEEEASPEELQRYYVSLRHYYNWLTRQRY-NH2
SMILES: CC(C)CC(=O)N[C@@H](C)C(=O)N1CCC[C@H]1C(=O)N[C@@H](C)C(=O)N[C@@H](CCCCNC(=O)COCCOCCNC(=O)COCCOCCNC(=O)CC[C@H](NC(=O)CCCCCCCCCCCCCCCCC(=O)O)C(=O)O)C(=O)N1CCC[C@H]1C(=O)N[C@@H](CCC(=O)O)C(=O)N[C@@H](CCC(=O)O)C(=O)N[C@@H](CCC(=O)O)C(=O)N[C@@H](C)C(=O)N[C@@H](CO)C(=O)N1CCC[C@H]1C(=O)N[C@@H](CCC(=O)O)C(=O)N[C@@H](CCC(=O)O)C(=O)N[C@@H](CC(C)C)C(=O)N[C@@H](CCC(N)=O)C(=O)N[C@@H](CCCNC(=N)N)C(=O)N[C@@H](Cc1ccc(O)cc1)C(=O)N[C@@H](Cc1ccc(O)cc1)C(=O)N[C@H](C(=O)N[C@@H](CO)C(=O)N[C@@H](CC(C)C)C(=O)N[C@@H](CCCNC(=N)N)C(=O)N[C@@H](Cc1c[nH]cn1)C(=O)N[C@@H](Cc1ccc(O)cc1)C(=O)N[C@@H](Cc1ccc(O)cc1)C(=O)N[C@@H](CC(N)=O)C(=O)N[C@@H](Cc1c[nH]c2ccccc12)C(=O)N[C@@H](CC(C)C)C(=O)N[C@H](C(=O)N[C@@H](CCCNC(=N)N)C(=O)N[C@@H](CCC(N)=O)C(=O)N[C@@H](CCCNC(=N)N)C(=O)N[C@@H](Cc1ccc(O)cc1)C(N)=O)[C@@H](C)O)C(C)C
B4: Reference 1 (peptide)
peptide: Isovaleryl-APEKPEEDASPEEIQQYYVSLRHYYNWLTRQRY-NH2
modifications: not fully specified (residue 4); printed as iVal-APEK(C18DA-gGlu-OEG-OEG)PEEDASPEEIQQYYVSLRHYYNWLTRQRY-NH2

Numbered stars: 1 amine (or outer) side, 2 acyl side, 3 side chain; on linkers, the order of the positions; unused ones are H or OH. Side chains are listed from the residue outwards. * marks the point of attachment. C18 diacid = O=C(O)CCCCCCCCCCCCCCCCC(=O)*; γGlu = O=C(O)[C@H](CCC(=O)[*:2])N[*:1]; Isovaleryl = CC(C)CC(=O)*; AEEA = NCCOCCOCC(=O)O; Ahx = NCCCCCC(=O)O

The target in the test is T1, human NPY2 receptor. The test is described as follows: radioligand binding competition (125I-PYY(1-36)) on human NPY2R membranes, filtration. The procedure: The filtration RLB assay was carried out in 96-well plates in a final volume of 100 μl per well. Freeze-dried test peptides were dissolved in 100% dimethyl sulfoxide (DMSO) to stock solutions of 1 mM and serial dilutions were performed in assay buffer (50 mM HEPES, 5 mM MgCl₂, 1 mM CaCl₂, pH 7.4) containing 0.2% ovalbumin. […] Subsequently, 10 μl of human ¹²⁵I-PYY(1-36) (Perkin Elmer) in assay buffer containing 0.2% ovalbumin was added to wells to give a final concentration of 0.02 nM. Next, 80 μL membranes (HTS066M, ChemiSCREEN™ Human Neuropeptide Y2 Receptor Membrane Preparation, CHEMICON) were added to each well to give a final protein concentration of 0.5 μg/well. The plates were sealed and incubated at room temperature for 2 hours in a plate shaker set at 400 rpm. The incubation was stopped by vacuum filtration onto 0.5% poly-ethylene amine (PEI) presoaked GF/C filters using a 96-well FilterMate™ harvester (Perkin Elmer) followed by four washes with 300 μl/well ice-cold wash buffer (50 mM HEPES, 500 mM NaCl, pH7.4). Filter plates were then dried for 60 min at room temperature and the bottom of the plates was sealed with backing tape UniFilter-96. Finally, 50 μl/well scintillation counter cocktail (Microscint20, Packard) was added, and the radioactivity was counted in the Packard TopCount NXT scintillation counter. IC₅₀ values (the half maximal inhibitory concentration of the agonist) were calculated by nonlinear regression analysis of sigmoidal dose-response curves.
With B1, the Ki – broadly, a measure of affinity in units of concentration, obtained from inhibition or displacement – came to 0.4 nM.

Molecule Isovaleryl-APEK([Ahx-γGlu-C18 diacid])PEADATPEEIQRYYVSLRHYYNWLTRQRY-NH2 [Compound K] had a Ki of 1.04 nM.

Regarding B2, affinity was put at a Ki of 0.46 nM.

Molecule Isovaleryl-APEK([AEEA-AEEA-γGlu-C18 diacid])PEADASPEEIQRYYVSLRHYYNWLTRQRY-NH2 [Compound J] returned a Ki of 0.24 nM.

The molecule Isovaleryl-APAK([AEEA-AEEA-γGlu-C18 diacid])PEEDATPEELQRYYVSLRHYYNWLTRQRY-NH2 [Compound A] returned a Ki of 0.66 nM.

Take B3: the Ki amounted to 1.95 nM.

With Isovaleryl-APEK([AEEA-AEEA-γGlu-C18 diacid])PEEDATPEELQKYYVSLRHYYNWLTRQRY-NH2 [Compound H], the Ki was determined as 1.96 nM.

The molecule B4 gave a Ki of 0.74 nM.

With Isovaleryl-APAK([AEEA-AEEA-γGlu-C18 diacid])PEEDASPEEIQRYYVSLRHYYNWLTRQRY-NH2 [Compound E], the affinity corresponds to a Ki of 0.55 nM.
